From patent US20230094463A1, “ANTIBODIES THAT DISRUPT THE INTERACTION OF GAL3 AND INSULIN RECEPTOR OR INTEGRINS AND METHODS OF USE THEREOF” (TrueBinding, Inc., priority 2019, published 2023) come the findings set out here.

Assay [1] has as its target Human GAL3 protein (TrueBinding, QCB200349 / QCB200352; R&D Systems, 8259-GA) (human) (UniProt P17931). Put plainly: blocking ELISA (GAL3 coated; antibody + biotinylated ITGaV). For orientation: In an ELISA, binding on a coated surface is turned into a signal by an enzyme label.
The target is the same in assay [2]. The assay is described as follows: blocking ELISA (GAL3 coated; antibody + biotinylated ITGa3).
Assay [3] shares this target. The assay is described as follows: cell-based or functional assay.
Assay [4] has the same target. Put plainly: blocking ELISA (GAL3 coated; antibody + biotinylated ITGb3).
For assay [5] the target is unchanged. Put plainly: blocking ELISA (GAL3 coated; antibody + biotinylated ITGb1).

Residue numbers refer to the chain shown, from its start. Names and notes keep the numbering of the source.
For inhibition of Jurkat T cell adhesion in this document: test concentration or dose not given here.

Chain of Human GAL3 protein (TrueBinding, QCB200349 / QCB200352; R&D Systems, 8259-GA) (human) (P17931 2-250 limits assumed): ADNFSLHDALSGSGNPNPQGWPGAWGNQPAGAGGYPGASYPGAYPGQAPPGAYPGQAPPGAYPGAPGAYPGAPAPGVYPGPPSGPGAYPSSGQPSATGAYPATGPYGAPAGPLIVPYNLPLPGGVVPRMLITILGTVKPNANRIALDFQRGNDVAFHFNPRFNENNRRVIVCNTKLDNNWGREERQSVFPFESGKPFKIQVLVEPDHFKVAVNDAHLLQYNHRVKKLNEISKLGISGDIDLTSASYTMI

B1: F849C.8D10 (antibody, V domains shown)
VH: QVQLQQTGAELVKPGASVKLSCKASGYTFTSYWINWVKQRPGQGLEWIGNIYPGSSSIYYSEKFKSKATLTVDTSSSTAYMQLSSLTSDDSAVYYCARWGYWGQGTTLTVSS
VL: DVLMTQTPLSLPVSLGDQASISCRSSQDIVHSSGNTYLEWYLQKPGQSLKLLIYKVSNRFSGVPDRFSASGSGTDFTLKISRVEAEDLGVYYCFQGSHVPPTFGSGTKLEIKR
On to B1, for which the percent blockade of GAL3-ITGaV interaction in assay [1] was more than 90%.

B2: F846TC.14E4 (antibody, V domains shown)
VH: QVTLKESGPGILQPSQTLSLTCSFSGFSLSTSGMGVGWIRQPSGKGLEWLAHIWWDDDKYYNTALKSGLTISKDASKNQVFLKIASMDTADTATYYCARNLYDGSYGYYAMDYWGQGTSVTVSS
VL: DIVMTQAAFSNPVTLGTSASISCRSSKSLLHTNGITFLYWYLQKPGQSPQPLIYQMSNLASGVPDRFSSSGSGTDFTLRISRVEAEDVGVYYCAQNLELPWTFGGGTKLEINR
Turning to B2, in assay [2], the percent blockade of GAL3-ITGa3 interaction was more than 90%. The same molecule displayed an inhibition of Jurkat T cell adhesion in assay [3] of 40 to 80%. The percent blockade of GAL3-ITGb3 interaction in assay [4] is more than 90%.

B3: 15F10.2D6 (antibody, V domains shown)
VH: EVQLVESGGGLVKPGGSLKLSCAASGFAFSSYAMSWVRQTPEKRLEWVATISDGGVYTYYTDHVKGRFTISRDNAEDNLYLQMSHLKSEDTAMYYCVRDGGYWGQGTTLTVSS
VL: DVLMTQTPLSLPVSLGDQASISCRSSQSIVHNNGNTYLEWYLQKPGQSPKLLIYKVSNRFSGVPDRFSGSGSGTDFTLKISRVEAEDLGVYYCFQGSHVPLTFGGGTKLELK
Consider B3, for which the percent blockade of GAL3-ITGa3 interaction in assay [2] was more than 90%. The inhibition of Jurkat T cell adhesion in assay [3] was in the range of 40 to 80%. Moreover, in assay [5], the percent blockade of GAL3-ITGb1 interaction lay within 40 to 60%.

B4: 7D8.2D8 (antibody, V domains shown)
VH: B3 VH with A28T, V56I, T61P, H63N, E76K, D77N, Y80F
VL: B3 VL with N32S, G105A
For B4, the percent blockade of GAL3-ITGa3 interaction in assay [2] was more than 90%. Besides, in assay [3], the inhibition of Jurkat T cell adhesion lay in the range of 40 to 80%. Further, the percent blockade of GAL3-ITGb1 interaction in assay [5] lay in the range of 40 to 60%.
